IntAct's records for PubMed 27852061

B1: Forkhead box protein E1 (Homo sapiens), O00358 (parent)
chain: MTAESGPPPPQPEVLATVKEERGETAAGAGVPGEATGRGAGGRRRKRPLQRGKPPYSYIALIAMAIAHAPERRLTLGGIYKFITERFPFYRDNPKKWQNSIRHNLTLNDCFLKIPREAGRPGKGNYWALDPNAEDMFESGSFLRRRKRFKRSDLSTYPAYMHDAAAAAAAAAAAAAAAAIFPGAVPAARPPYPGAVYAGYAPPSLAAPPPVYYPAASPGPCRVFGLVPERPLSPELGPAPSGPGGSCAFASAGAPATTTGYQPAGCTGARPANPSAYAAAYAGPDGAYPQGAGSAIFAAAGRLAGPASPPAGGSSGGVETTVDFYGRTSPGQFGALGACYNPGGQLGGASAGAYHARHAAAYPGGIDRFVSAM
partner: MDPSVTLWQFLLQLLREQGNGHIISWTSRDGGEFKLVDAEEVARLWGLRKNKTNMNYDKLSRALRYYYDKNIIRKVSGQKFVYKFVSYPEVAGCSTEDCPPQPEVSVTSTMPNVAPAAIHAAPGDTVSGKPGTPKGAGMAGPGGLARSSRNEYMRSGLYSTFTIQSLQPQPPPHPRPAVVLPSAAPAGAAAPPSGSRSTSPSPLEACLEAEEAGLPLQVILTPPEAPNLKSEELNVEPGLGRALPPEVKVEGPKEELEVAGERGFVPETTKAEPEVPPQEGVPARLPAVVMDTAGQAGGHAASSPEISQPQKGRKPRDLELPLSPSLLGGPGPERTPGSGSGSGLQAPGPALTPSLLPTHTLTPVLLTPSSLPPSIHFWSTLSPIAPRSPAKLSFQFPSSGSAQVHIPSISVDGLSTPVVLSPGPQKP

Variants of: B1
Conditions: with elk1_human ELK1, P19419

| effect of a mutation on the interaction | Variant |
| --- | --- |
| with no effect | MTAESGPPPPQPEVLATVKEERGETAAGAGVPGEATGRGAGGRRRKRPLQRGKPPYSYIALIAMVIAHAPERRLTLGGIYKFITERFPFYRDNPKKWQNSIRHNLTLNDCFLKIPREAGRPGKGNYWALDPNAEDMFESGSFLRRRKRFKRSDLSTYPAYMHDAAAAAAAAAAAAAAAAIFPGAVPAARPPYPGAVYAGYAPPSLAAPPPVYYPAASPGPCRVFGLVPERPLSPELGPAPSGPGGSCAFASAGAPATTTGYQPAGCTGARPANPSAYAAAYAGPDGAYPQGAGSAIFAAAGRLAGPASPPAGGSSGGVETTVDFYGRTSPGQFGALGACYNPGGQLGGASAGAYHARHAAAYPGGIDRFVSAM [A65V] |
